Experimental data from US20250207119A1 (VERRA THERAPEUTICS, published 2025).

B1: C-term PEG-SEQ ID NO: 71 (R29K; R55K; C151S; E177A) (peptide)
chain: NPLNKYIRHYEGLSYNVDSLHQKHQRAKKAVSHEDQFLRLDFHAHGRHFNLRMKKDTSLFSDEFKVETSNKVLDYDTSHIYTGHIYGEEGSFSHGSVIDGRFEGFIQTRGGTFYVEPAERYIKDRTLPFHSVIYHEDDINYPHKYGPQGGSADHSVFERMRKYQMTGVEEVTQIPQAEHAANGPELLRKGSGSC
modifications: 10 kDa maleimide PEG on a cysteine at the C-terminus ('C-term PEG')
B2: SEQ ID NO: 64 (SEQ ID NO: 2 with R29K; R55K; C151S) (peptide)
chain: NPLNKYIRHYEGLSYNVDSLHQKHQRAKKAVSHEDQFLLLDFHAHGRQFNLRMKKDTSLFSDEFKVETSNKVLDYDTSHIYTGHIYGEEGSFSHGSVIDGRFEGFIKTRGGTFYIEPAERYIKDRILPFHSVIYHEDDINYPHKYGPQGGSADHSVFERMRKYQMTGVEEGARAHPEKHAASSGPELLRK
B3: SEQ ID NO: 67 (SEQ ID NO: 1/SEQ ID NO: 2 hybrid; R26A; R52A; C151S) (peptide)
chain: NPLNKYIRHYEGLSYNVDSLHQKHQAAKRAVSHEDQFLRLDFHAHGRHFNLAMKRDTSLFSDEFKVETSNKVLDYDTSHIYTGHIYGEEGSFSHGSVIDGRFEGFIQTRGGTFYVEPAERYIKDRTLPFHSVIYHEDDINYPHKYGPQGGSADHSVFERMRKYQMTGVEEGARAHPEKHAASSGPELLRK
B4: N-term PEG-SEQ ID NO: 70 (R29K; R55K; C151S; E177A) (peptide)
chain: CGSNPLNKYIRHYEGLSYNVDSLHQKHQRAKKAVSHEDQFLRLDFHAHGRHFNLRMKKDTSLFSDEFKVETSNKVLDYDTSHIYTGHIYGEEGSFSHGSVIDGRFEGFIQTRGGTFYVEPAERYIKDRTLPFHSVIYHEDDINYPHKYGPQGGSADHSVFERMRKYQMTGVEEVTQIPQAEHAANGPELLRK
modifications: 10 kDa maleimide PEG on a cysteine at the N-terminus ('N-term PEG')
B5: SEQ ID NO: 65 (R26A; R52A; C151S) (peptide)
chain: NPLNKYIRHYEGLSYNVDSLHQKHQAAKRAVSHEDQFLRLDFHAHGRHFNLAMKRDTSLFSDEFKVETSNKVLDYDTSHIYTGHIYGEEGSFSHGSVIDGRFEGFIQTRGGTFYVEPAERYIKDRTLPFHSVIYHEDDINYPHKYGPQGGSADHSVFERMRKYQMTGVEEVTQIPQAEHAANGPELLRK
B6: SEQ ID NO: 68 (R26A; R55A; C151S) (peptide)
chain: NPLNKYIRHYEGLSYNVDSLHQKHQAAKRAVSHEDQFLRLDFHAHGRHFNLRMKADTSLFSDEFKVETSNKVLDYDTSHIYTGHIYGEEGSFSHGSVIDGRFEGFIQTRGGTFYVEPAERYIKDRTLPFHSVIYHEDDINYPHKYGPQGGSADHSVFERMRKYQMTGVEEVTQIPQAEHAANGPELLRK
B7: SEQ ID NO: 63 (R29K; R55K; C151S; E177A) (peptide)
chain: NPLNKYIRHYEGLSYNVDSLHQKHQRAKKAVSHEDQFLRLDFHAHGRHFNLRMKKDTSLFSDEFKVETSNKVLDYDTSHIYTGHIYGEEGSFSHGSVIDGRFEGFIQTRGGTFYVEPAERYIKDRTLPFHSVIYHEDDINYPHKYGPQGGSADHSVFERMRKYQMTGVEEVTQIPQAEHAANGPELLRK
B8: SEQ ID NO: 6 (mut2; K28A; K54A; C151S) (peptide)
chain: NPLNKYIRHYEGLSYNVDSLHQKHQRAARAVSHEDQFLRLDFHAHGRHFNLRMARDTSLFSDEFKVETSNKVLDYDTSHIYTGHIYGEEGSFSHGSVIDGRFEGFIQTRGGTFYVEPAERYIKDRTLPFHSVIYHEDDINYPHKYGPQGGSADHSVFERMRKYQMTGVEEVTQIPQEEHAANGPELLRK
B9: SEQ ID NO: 66 (SEQ ID NO: 1/SEQ ID NO: 2 hybrid; R26A; R55A; C151S; E177A) (peptide)
chain: NPLNKYIRHYEGLSYNVDSLHQKHQAAKRAVSHEDQFLLLDFHAHGRQFNLRMKADTSLFSDEFKVETSNKVPDYDTSHIYTGHIYGEEGSFSHGSVIDGRFEGFIKTRGGTFYIEPAERYIKDRILPFHSVIYHEDDINYPHKYGPQGGSADHSVFERMRKYQMTGVEEVTQIPQAEHAANGPELLRK
B10: SEQ ID NO: 5 (mut 1; K28A; K54A) (peptide)
chain: NPLNKYIRHYEGLSYNVDSLHQKHQRAARAVSHEDQFLRLDFHAHGRHFNLRMARDTSLFSDEFKVETSNKVLDYDTSHIYTGHIYGEEGSFSHGSVIDGRFEGFIQTRGGTFYVEPAERYIKDRTLPFHSVIYHEDDINYPHKYGPQGGCADHSVFERMRKYQMTGVEEVTQIPQEEHAANGPELLRK
B11: SEQ ID NO: 9 (mut3; K28A; K54A; E88A; E177A) (peptide)
chain: NPLNKYIRHYEGLSYNVDSLHQKHQRAARAVSHEDQFLRLDFHAHGRHFNLRMARDTSLFSDEFKVETSNKVLDYDTSHIYTGHIYGAEGSFSHGSVIDGRFEGFIQTRGGTFYVEPAERYIKDRTLPFHSVIYHEDDINYPHKYGPQGGCADHSVFERMRKYQMTGVEEVTQIPQAEHAANGPELLRK
B12: C-term PEG-SEQ ID NO: 69 (R29K; R55K; E177A) (peptide)
chain: NPLNKYIRHYEGLSYNVDSLHQKHQRAKKAVSHEDQFLRLDFHAHGRHFNLRMKKDTSLFSDEFKVETSNKVLDYDTSHIYTGHIYGEEGSFSHGSVIDGRFEGFIQTRGGTFYVEPAERYIKDRTLPFHSVIYHEDDINYPHKYGPQGGCADHSVFERMRKYQMTGVEEVTQIPQAEHAANGPELLRK
modifications: 10 kDa maleimide PEG on a cysteine; printed as 'C-term PEG' in Table 5 (the listed changes keep Cys151, and paragraph 162 speaks of a cysteine at C151, or the N- or C-terminus, for SEQ ID NOs: 69-71)
B13: SEQ ID NO: 34 (R29A; C151S; E177A) (peptide)
chain: NPLNKYIRHYEGLSYNVDSLHQKHQRAKAAVSHEDQFLRLDFHAHGRHFNLRMKRDTSLFSDEFKVETSNKVLDYDTSHIYTGHIYGEEGSFSHGSVIDGRFEGFIQTRGGTFYVEPAERYIKDRTLPFHSVIYHEDDINYPHKYGPQGGSADHSVFERMRKYQMTGVEEVTQIPQAEHAANGPELLRK
B14: Cys151-pegylated SEQ ID NO: 5 (K28A; K54A) (peptide)
chain: NPLNKYIRHYEGLSYNVDSLHQKHQRAARAVSHEDQFLRLDFHAHGRHFNLRMARDTSLFSDEFKVETSNKVLDYDTSHIYTGHIYGEEGSFSHGSVIDGRFEGFIQTRGGTFYVEPAERYIKDRTLPFHSVIYHEDDINYPHKYGPQGGCADHSVFERMRKYQMTGVEEVTQIPQEEHAANGPELLRK
modifications: 10 kDa maleimide PEG on Cys151
B15: SEQ ID NO: 62 (R29A; R55A; C151S; E177A) (peptide)
chain: NPLNKYIRHYEGLSYNVDSLHQKHQRAKAAVSHEDQFLRLDFHAHGRHFNLRMKADTSLFSDEFKVETSNKVLDYDTSHIYTGHIYGEEGSFSHGSVIDGRFEGFIQTRGGTFYVEPAERYIKDRTLPFHSVIYHEDDINYPHKYGPQGGSADHSVFERMRKYQMTGVEEVTQIPQAEHAANGPELLRK

Tests used:
Test in all cases: cell-based or functional assay
[1] = target: Meprin from R & D Systems
[2] = target: T1, Human ADAM10 from R & D Systems (human, UniProt O14672 214-672)
T1 sequence (looked up): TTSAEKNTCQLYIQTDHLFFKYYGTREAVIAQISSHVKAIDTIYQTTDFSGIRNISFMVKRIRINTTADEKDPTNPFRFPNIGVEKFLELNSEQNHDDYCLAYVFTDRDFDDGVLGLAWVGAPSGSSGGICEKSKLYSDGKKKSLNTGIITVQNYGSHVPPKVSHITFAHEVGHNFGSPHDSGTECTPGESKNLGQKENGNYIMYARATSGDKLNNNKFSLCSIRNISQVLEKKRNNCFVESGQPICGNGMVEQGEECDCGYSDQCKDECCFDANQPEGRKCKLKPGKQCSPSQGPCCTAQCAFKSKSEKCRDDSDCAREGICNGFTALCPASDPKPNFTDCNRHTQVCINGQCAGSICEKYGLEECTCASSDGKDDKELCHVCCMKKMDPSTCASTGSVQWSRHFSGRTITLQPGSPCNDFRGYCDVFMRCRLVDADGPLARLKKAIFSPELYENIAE

[3] = target: MMP 12 (UniProt P39900 17-470, limits assumed)
[4] = target: MMP 3 (UniProt P08254 18-477, limits assumed)
[5] = target: MMP 14 (UniProt P50281 21-538)
[6] = target: MMP 9 (UniProt P14780 20-707, limits assumed)
[7] = target: T2, MMP 2 (UniProt P08253 30-660, limits assumed)
T2 sequence (looked up): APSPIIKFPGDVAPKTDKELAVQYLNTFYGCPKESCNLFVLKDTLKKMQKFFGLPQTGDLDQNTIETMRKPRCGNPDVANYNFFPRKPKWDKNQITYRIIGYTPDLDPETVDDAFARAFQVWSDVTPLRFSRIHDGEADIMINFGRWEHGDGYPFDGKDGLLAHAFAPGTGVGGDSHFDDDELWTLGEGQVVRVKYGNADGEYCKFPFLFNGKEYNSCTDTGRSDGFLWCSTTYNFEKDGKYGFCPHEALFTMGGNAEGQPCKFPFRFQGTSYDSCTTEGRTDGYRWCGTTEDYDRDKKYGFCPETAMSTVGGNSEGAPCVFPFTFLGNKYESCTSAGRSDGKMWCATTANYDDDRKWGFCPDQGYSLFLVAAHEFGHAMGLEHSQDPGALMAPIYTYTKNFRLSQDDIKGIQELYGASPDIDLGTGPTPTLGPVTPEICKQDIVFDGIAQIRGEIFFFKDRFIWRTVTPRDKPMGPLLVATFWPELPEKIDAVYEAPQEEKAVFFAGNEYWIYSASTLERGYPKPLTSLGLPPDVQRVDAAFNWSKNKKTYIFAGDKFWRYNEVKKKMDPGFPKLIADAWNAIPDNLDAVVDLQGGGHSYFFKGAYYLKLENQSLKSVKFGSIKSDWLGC

Sequence of MMP 9 (P14780 20-707 limits assumed): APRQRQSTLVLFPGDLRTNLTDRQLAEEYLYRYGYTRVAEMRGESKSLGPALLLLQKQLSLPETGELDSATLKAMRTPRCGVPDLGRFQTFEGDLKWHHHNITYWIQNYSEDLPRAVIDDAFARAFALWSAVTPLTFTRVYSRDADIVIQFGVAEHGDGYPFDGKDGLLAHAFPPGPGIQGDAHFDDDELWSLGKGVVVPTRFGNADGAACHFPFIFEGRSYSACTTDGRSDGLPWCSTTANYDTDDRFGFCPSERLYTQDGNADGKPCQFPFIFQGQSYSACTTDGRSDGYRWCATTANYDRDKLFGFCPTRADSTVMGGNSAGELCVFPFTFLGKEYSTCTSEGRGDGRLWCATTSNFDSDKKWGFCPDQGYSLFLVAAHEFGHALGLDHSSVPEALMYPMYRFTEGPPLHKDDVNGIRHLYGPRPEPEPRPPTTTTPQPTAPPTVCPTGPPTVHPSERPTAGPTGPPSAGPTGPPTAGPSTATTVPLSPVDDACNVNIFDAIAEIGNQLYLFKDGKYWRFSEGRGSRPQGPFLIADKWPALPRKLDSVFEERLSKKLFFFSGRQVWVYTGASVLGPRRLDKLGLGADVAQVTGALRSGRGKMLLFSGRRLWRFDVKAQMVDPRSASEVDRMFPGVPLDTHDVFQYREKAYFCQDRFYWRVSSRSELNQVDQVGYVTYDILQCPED
Sequence of MMP 3 (P08254 18-477 limits assumed): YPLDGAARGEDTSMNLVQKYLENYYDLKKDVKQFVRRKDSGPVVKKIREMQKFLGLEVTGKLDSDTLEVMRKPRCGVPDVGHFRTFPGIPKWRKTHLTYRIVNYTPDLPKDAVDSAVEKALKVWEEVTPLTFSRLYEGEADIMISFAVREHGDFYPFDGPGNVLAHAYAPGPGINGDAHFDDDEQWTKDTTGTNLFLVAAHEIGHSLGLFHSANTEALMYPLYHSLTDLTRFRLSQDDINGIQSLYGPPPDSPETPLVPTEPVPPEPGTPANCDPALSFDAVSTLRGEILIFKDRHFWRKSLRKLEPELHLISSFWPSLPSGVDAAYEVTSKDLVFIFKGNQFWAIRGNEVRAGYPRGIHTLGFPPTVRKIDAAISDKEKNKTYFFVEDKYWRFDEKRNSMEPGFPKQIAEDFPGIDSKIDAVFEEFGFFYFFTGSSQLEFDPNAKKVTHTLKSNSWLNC
Sequence of MMP 12 (P39900 17-470 limits assumed): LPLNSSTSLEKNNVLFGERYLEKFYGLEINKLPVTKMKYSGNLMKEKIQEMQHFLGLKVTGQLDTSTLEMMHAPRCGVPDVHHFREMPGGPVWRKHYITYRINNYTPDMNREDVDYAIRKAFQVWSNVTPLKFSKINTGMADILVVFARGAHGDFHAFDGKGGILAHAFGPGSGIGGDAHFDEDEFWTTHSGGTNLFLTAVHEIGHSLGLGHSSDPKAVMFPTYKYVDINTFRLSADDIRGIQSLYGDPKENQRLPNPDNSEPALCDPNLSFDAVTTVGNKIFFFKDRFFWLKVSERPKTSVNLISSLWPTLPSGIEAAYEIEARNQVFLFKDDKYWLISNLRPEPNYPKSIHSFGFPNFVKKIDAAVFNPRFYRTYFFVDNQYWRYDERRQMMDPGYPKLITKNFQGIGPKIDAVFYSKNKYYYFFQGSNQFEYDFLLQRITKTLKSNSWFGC

| Binder | IC50 (nM), inhibition of ADAM10 cleavage of the fluorescent substrate PEPDAB064 [2] [nM] | IC50 (nM), inhibition of meprin cleavage of the fluorescent substrate PEPDAB022 [1] [nM] | other results |
| --- | --- | --- | --- |
| B1 | 19 | – | IC50, inhibition of meprin cleavage of the fluorescent substrate PEPDAB022 [1]: ~4000 nM |
| B2 | 83 | 682 | – |
| B3 | 147 | – | – |
| B4 | 52 | – | IC50, inhibition of meprin cleavage of the fluorescent substrate PEPDAB022 [1]: ~7000 nM |
| B5 | 49 | 289 | – |
| B6 | 130 | – | – |
| B7 | 35 | 542 | – |
| B8 | 106 | – | – |
| B9 | 234 | – | – |
| B10 | 104 | – | – |
| B11 | 142 | – | – |
| B12 | 71 | – | IC50, inhibition of meprin cleavage of the fluorescent substrate PEPDAB022 [1]: ~5000 nM |
| B13 | 95 | 289 | – |
| B14 | 83 | – | – |
| B15 | 110 | 817 | percent inhibition of MMP activity (PEPDAB008 substrate) [3]: 0 % at 8 µM; percent inhibition of MMP activity (PEPDAB008 substrate) [4]: 0 % at 8 µM; percent inhibition of MMP activity (PEPDAB008 substrate) [5]: 0 % at 8 µM; percent inhibition of MMP activity (PEPDAB008 substrate) [6]: 0 % at 8 µM; percent inhibition of MMP activity (PEPDAB008 substrate) [7]: 0 % at 8 µM |
